T1: Human BMP12 (bone morphogenetic protein 12) (human, UniProt Q7Z4P5 322-450)
T1 construct: bone morphogenetic protein 12 (GDF7), human; the dimer peak from size exclusion was used; also called recombinant human BMP12; source: E. coli, purified (SP-Sepharose cation exchange, size exclusion; dimer peak)
T1 sequence (looked up): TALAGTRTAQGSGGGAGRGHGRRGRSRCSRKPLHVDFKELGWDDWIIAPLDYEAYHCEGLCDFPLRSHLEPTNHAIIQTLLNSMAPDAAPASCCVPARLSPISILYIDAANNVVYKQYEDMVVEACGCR

B1: RGMa-Fc (ectodomain of RGMa fused to the Fc portion of human IgG) (Fc fusion)
chain: CKILKCNSEFWSATSGSHAPASDDTPEFCAALRSYALCTRRTARTCRGDLAYHSAVHGIEDLMSQHNCSKDGPTSQPRLRTLPPAGDSQERSDSPEICHYEKSFHKHSATPNYTHCGLFGDPHLRTFTDRFQTCKVQGAWPLIDNNYLNVQVTNTPVLPGSAATATSKLTIIFKNFQECVDQKVYQAEMDELPAAFVDGSKNGGDKHGANSLKITEKVSGQHVEIQAKYIGTTIVVRQVGRYLTFAVRMPEEVVNAVEDWDSQGLYLCLRGCPLNQQIDFQAFHTNAEGTGARRLAAASPAPTAPETFPYETAVAKCKEKLPVEDLYYQACVFDLLTTGDVNFTLAAYYALEDVKMLHSNKDKLHLYERTRDLPGRA

Columns and labels:
Assay in all cases: SPR; BIAcore 3000; BMP2 (350 RU) or BMP12 (1000 RU) amine-coupled on CM5 chips; soluble RGM injected at 0.1-100 nM, 30 uL/min, 500 s, 25°C; HBS-EP pH 7.4 (0.15 M NaCl); global analysis with BIAevaluation 3.2; double referencing
[1] = biological target: Human BMP2 (bone morphogenetic protein 2) (human) (UniProt P12643)
Sequence of Human BMP2 (bone morphogenetic protein 2) (human) (P12643 283-396): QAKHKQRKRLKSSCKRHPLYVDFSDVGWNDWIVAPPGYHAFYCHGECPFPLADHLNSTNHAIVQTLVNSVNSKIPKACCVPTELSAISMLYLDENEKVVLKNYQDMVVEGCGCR

[2] = biological target: Human BMP12 (bone morphogenetic protein 12) (human) (UniProt Q7Z4P5)
[3] = biological target: T2, Human BMP2 (bone morphogenetic protein 2) (human, UniProt P12643 283-396); conditions: both partners purified
T2 construct: bone morphogenetic protein 2, human; purified recombinant protein; also called recombinant human BMP2; source: produced and purified as previously described [37]
T2 sequence (P12643 283-396): as above

[4] = biological target: T1, Human BMP12 (bone morphogenetic protein …); conditions: both partners purified

Molecule	Kd [1] [nM]	koff [1] [s⁻¹]	kon [1] [M⁻¹ s⁻¹]	Kd [2] [nM]	koff [2] [s⁻¹]	kon [2] [M⁻¹ s⁻¹]	Kd [3] [nM]	koff [3] [s⁻¹]	kon [3] [M⁻¹ s⁻¹]	Kd [4] [nM]	koff [4] [s⁻¹]	kon [4] [M⁻¹ s⁻¹]
RGMb-Fc (ectodomain of RGMb fused to the Fc portion of human IgG) (from UniProt Q6NW40 46-413) (Fc fusion)	5.43	0.000256	47200	2.06	0.000118	56900	–	–	–	–	–	–
RGMc-Fc (ectodomain of RGMc fused to the Fc portion of human IgG) (from UniProt Q6ZVN8 36-400) (Fc fusion)	4.22	0.000363	86100	1.22	9.22e-05	75600	–	–	–	–	–	–
B1	–	–	–	–	–	–	2.46	0.000364	148000	1.41	0.000179	127000
